Assay results as given in publication PMC4966504 (mAbs, 2015).
Where a chain is given by its changes, count along the chain named. Names may count otherwise. One block for each binder: values may come before it.

What was measured:
Assay in all cases: flow cytometry on cells
[1] = target: human CXCR4, endogenous on 293X cells (Homo sapiens, UniProt P61073)
[2] = target: human CXCR4 (G-protein C-X-C chemokine receptor 4), expressed on CHO cells (Homo sapiens, UniProt P61073-1)
human CXCR4 A175D = human CXCR4 A175D (Homo sapiens, UniProt P61073-1, A175D)
human CXCR4 E179A = human CXCR4 E179A (Homo sapiens, UniProt P61073-1, E179A)
human CXCR4 A180D = human CXCR4 A180D (Homo sapiens, UniProt P61073-1, A180D)
human CXCR4 D182A = human CXCR4 D182A (Homo sapiens, UniProt P61073-1, D182A)
human CXCR4 D181A = human CXCR4 D181A (Homo sapiens, UniProt P61073-1, D181A)
human CXCR4 P191A = human CXCR4 P191A (Homo sapiens, UniProt P61073-1, P191A)
human CXCR4 N176VSE179A4 = human CXCR4 N176VSE179A4 (Homo sapiens, UniProt P61073, N176VSE179A4)
[3] = target: human CXCR4 D181DRYI185A5 (Homo sapiens, UniProt P61073, D181DRYI185A5)
human CXCR4 D187RFY190A4 = human CXCR4 D187RFY190A4 (Homo sapiens, UniProt P61073, D187RFY190A4)
human CXCR4 L194W195A2 = human CXCR4 L194W195A2 (Homo sapiens, UniProt P61073, L194W195A2)

B1: MEDI3185 variant VH W52/Y52A/D53 to Ala (CDR2H) (antibody, V domains shown)
VH: QVQLVESGGGVVQPGRSLRLSCAASGFTFSNYVMHWVRQAPGKGLEWVAVIAAAGSNKYYADSVKGRFTISRDNSKNTLSLQMNSLRAEDTAVYYCERGEGYYGSGSRYRGYYYGMDVWGQGTTVTVSS
VL: DIQMTQSPSSLSASVGDRVTITCRASQGIRTDLGWYQQKPGKAPKRLIYAASSLQSGVPSRFSGSGSGTEFTLTISSLQPEDFATYYCLQHNSYPRTFGQGTKVEIK
binding result [1]: binds

B2: MEDI3185 variant VH G54/S55/N56 to Ala (CDR2H) (antibody, V domains shown)
VH: B1 VH with A52W, A53Y, A54D, G55A, S56A, N57A
VL: B1 VL
binding result [1]: binds

B3: MEDI3185 (antibody, V domains shown)
VH: B1 VH with A52W, A53Y, A54D
VL: B1 VL
Kd [2]: 0.32 nM | Kd (human CXCR4 A175D): 0.21 nM | Kd (human CXCR4 E179A): 0.25 nM | Kd (human CXCR4 A180D): 0.32 nM | Kd (human CXCR4 D182A): 0.32 nM | Kd (human CXCR4 D181A): 0.31 nM | Kd (human CXCR4 P191A): 0.36 nM | Kd (human CXCR4 N176VSE179A4): 0.37 nM | Kd [3]: 0.28 nM | Kd (human CXCR4 D187RFY190A4): 0.37 nM | Kd (human CXCR4 L194W195A2): 0.3 nM

B4: MEDI3185 variant VL Q27A/G28A/I29A (CDR1L) (antibody, V domains shown)
VH: B1 VH with A52W, A53Y, A54D
VL: B1 VL with Q27A, G28A, I29A
binding result [1]: binds

Next, values leading:

binding result [1]: binds
B5: MEDI3185 variant VL A50/A51 to Gly, S52 to Ala (CDR2L) (antibody, V domains shown)
VH: B1 VH with A52W, A53Y, A54D
VL: B1 VL with A50G, A51G, S52A

binding result [1]: binds
B6: MEDI3185 variant VL P95 to Ala (CDR3L) (antibody, V domains shown)
VH: B1 VH with A52W, A53Y, A54D
VL: B1 VL with P95A

binding result [1]: binds
B7: MEDI3185 variant VL N92/S93/Y94 to Ala (CDR3L) (antibody, V domains shown)
VH: B1 VH with A52W, A53Y, A54D
VL: B1 VL with N92A, S93A, Y94A

binding result [1]: binds
B8: MEDI3185 variant VH N31A/Y32A/V33A (CDR1H) (antibody, V domains shown)
VH: B1 VH with N31A, Y32A, V33A, A52W, A53Y, A54D
VL: B1 VL
